In publication PMC11996864, “A small-molecule inhibitor of BCL10-MALT1 interaction abrogates progression of diffuse large B cell lymphoma” (The Journal of Clinical Investigation, 2025):
Several values for one entry are separate records, joined by “and”; a condition that tells them apart may be missing. Equal values may be shown once.

T1: BCL10 (Homo sapiens, UniProt O95999)
T1 construct: Full-length GST-BCL10 (Abnova, catalog H00008915-P01) was immobilized onto a gold sensor chip surface; GST (N); purchased Abnova H00008915-P01
T1 sequence (O95999 1-233): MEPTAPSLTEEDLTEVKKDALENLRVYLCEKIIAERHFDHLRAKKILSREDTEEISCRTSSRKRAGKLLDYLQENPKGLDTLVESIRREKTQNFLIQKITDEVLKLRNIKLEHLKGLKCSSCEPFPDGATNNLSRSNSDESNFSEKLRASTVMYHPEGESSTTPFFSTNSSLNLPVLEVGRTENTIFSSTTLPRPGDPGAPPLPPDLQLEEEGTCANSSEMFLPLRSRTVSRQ

T2: Full-length GST-BCL10 (UniProt O95999 1-233)
T2 construct: BCL10, full length; also called immobilized BCL10; source: bought: Abnova, catalog H00008915-P01
T2 sequence (looked up): T1 sequence (O95999 1-233)

B1: MALT1(DD+Ig1-2): Recombinant human MALT1 fragment, death domain plus Ig1-2 domains (aa 1-326) (protein, UniProt Q9UDY8 1-326, looked up, fragment)
chain: MSLLGDPLQALPPSAAPTGPLLAPPAGATLNRLREPLLRRLSELLDQAPEGRGWRRLAELAGSRGRLRLSCLDLEQCSLKVLEPEGSPSLCLLKLMGEKGCTVTELSDFLQAMEHTEVLQLLSPPGIKITVNPESKAVLAGQFVKLCCRATGHPFVQYQWFKMNKEIPNGNTSELIFNAVHVKDAGFYVCRVNNNFTFEFSQWSQLDVCDIPESFQRSVDGVSESKLQICVEPTSQKLMPGSTLVLQCVAVGSPIPHYQWFKNELPLTHETKKLYMVPYVDLEHQGTYWCHVYNDRDSQDSKKVEIIIGRTDEAVECTEDELNNLG
B2: MALT1(DD): Recombinant human MALT1 fragment, death domain only (aa 29-124) (protein, UniProt Q9UDY8 29-124, looked up, fragment)
chain: TLNRLREPLLRRLSELLDQAPEGRGWRRLAELAGSRGRLRLSCLDLEQCSLKVLEPEGSPSLCLLKLMGEKGCTVTELSDFLQAMEHTEVLQLLSP
B3: MALT1(DD+Ig1-2) purified protein (domain or fragment)
chain: MSLLGDPLQALPPSAAPTGPLLAPPAGATLNRLREPLLRRLSELLDQAPEGRGWRRLAELAGSRGRLRLSCLDLEQCSLKVLEPEGSPSLCLLKLMGEKGCTVTELSDFLQAMEHTEVLQLLSPPGIKITVNPESKAVLAGQFVKLCCRATGHPFVQYQWFKMNKEIPNGNTSELIFNAVHVKDAGFYVCRVNNNFTFEFSQWSQLDVCDIPESFQRSVDGVSESKLQICVEPTSQKLMPGSTLVLQCVAVGSPIPHYQWFKNELPLTHETKKLYMVPYVDLEHQGTYWCHVYNDRDSQDSKKVEIIIDELNNLGHPDNKEQTTDQ
modifications: Printed as aa 1-326, MBP tag removed by TEV. Taken in isoform B numbering (lacks 309-319): the paper uses isoform B (C-terminus at 813), and the 3K0W construct, 199 residues after its tag and ending …
B4: MALT1(Ig1-2) purified protein (domain or fragment)
chain: KITVNPESKAVLAGQFVKLCCRATGHPFVQYQWFKMNKEIPNGNTSELIFNAVHVKDAGFYVCRVNNNFTFEFSQWSQLDVCDIPESFQRSVDGVSESKLQICVEPTSQKLMPGSTLVLQCVAVGSPIPHYQWFKNELPLTHETKKLYMVPYVDLEHQGTYWCHVYNDRDSQDSKKVEIII
notes: MALT1, tandem Ig-like domains Ig1 and Ig2; PDB 3K0W is the published MALT1(Ig1-2) crystal structure, whose limits may differ from this construct; Host, tags and limits are in Supplemental Methods; source: purified protein (purification in Supplemental Methods)

Experiments:
BCL10 [1] = target: T1, BCL10; experiment: ELISA binding of recombinant MALT1 or GRK2 to immobilized BCL10; details: protein added to immobilized BCL10
Procedure: ELISA-based protein-protein interaction assay. On a high-binding 96-well ELISA microplate (Greiner Cat# 655061), 100 ng of His-tagged recombinant human full-length BCL10 protein (Novus Cat# NBP1-99064) or in 100 µl PBS was allowed to adhere overnight at 4°C. The plate was blocked with 5% BSA in PBS for 1 hour at room temperature. After washing twice with PBS-T, a mixture of 100 ng of GST-tagged recombinant human full-length MALT1 protein (Novus Biologicals Cat# H00010892-P01) and compound that was preincubated for 1 hour in 100 μl PBS was added to the plate for 1 hour at room temperature. After washing three times with PBS-T, anti-MALT1 antibody (Cell Signaling Technology, Cat# 2494) in 5% BSA in PBS was added at 1:1000 dilution for 1 hour at room temperature. After washing three times with PBS-T, HRP-conjugated secondary antibody in 5% BSA in PBS was added at 1:5000 dilution for 1 hour at room temperature. After washing three times with PBS-T, 100 µl of 3,3’,5,5’-tetramethylbenzidine (TMB) substrate solution (Thermo Scientific, Cat# 34028) was added for up to 15 minutes, and 100 µl of 2 M sulfuric acid was added to stop the reaction. The plate was read at 450 nm using a spectrophotometer (Molecular Devices SpectraMax i3). […]

BCL10 [2] = target: T1, BCL10; experiment: SPR binding of MALT1 protein fragments to immobilized BCL10
Procedure: Surface plasmon resonance (SPR) experiments were performed on a Biacore 2000 system (Cytiva). Full-length GST-BCL10 (Abnova, catalog H00008915-P01) was immobilized onto a gold sensor chip surface, and analyte solution containing MALT1(DD+Ig1-2), MALT1(DD), or MALT1(Ig1-2) purified protein was injected over the surface through a series of flow cells (see Supplemental Methods for details on protein purification). The binding kinetic parameters were obtained using the Langmuir model for global fitting with 1:1 binding ratio where one ligand molecule interacts with one analyte molecule. The equilibrium dissociation constant (KD) of M1i-124 to full-length GST-tagged MALT1 (Novus, catalog H00010892-P01) protein was determined by Creative Biolabs using Biacore T200. Full-length MALT1 protein was immobilized onto CM5 sensor chip surface, and M1i-124 was injected at concentrations of 0, 12.5, 25, 50, 100, and 200 μM. The steady-state affinity model was used to determine the KD.
Supplemental Materials and Methods
Cell lines and reagents. The DLBCL cell lines OCI-Ly1, OCI-Ly3, and OCI-Ly7 were provided by Mark D. Minden (University Health Network, Toronto, Ontario, Canada) , TMD8 cell line was provided by Louis Staudt (National Cancer Institute, NIH, Bethesda Maryland), and the BJAB cell line was provided by Mathijs Baens (Katholieke Universiteit Leuven, Leuven, Belgium). […]

Full-length GST-BCL10 = target: T2, Full-length GST-BCL10; experiment: SPR; Biacore 2000; full-length GST-BCL10 immobilised on a gold sensor chip surface, purified MALT1 fragments injected as analyte; Langmuir model, global fitting, 1:1 binding; details: both partners purified

Molecule	OD450 (BCL10 [1])	Kd (Full-length GST-BCL10)	also measured
BCL10 + GRK2	0.226 and 0.156		
BCL10 + MALT1	0.851 and 0.825		
B1			Kd (BCL10 [2]; MALT1 fragment over immobilized BCL10): 25 nM
B2			binding to BCL10 (BCL10 [2]; result in words): no detectable binding
B3		25 nM	
B4		29 nM	
